The subject of one data set is biotinyl-Trp-oxazolone. The data set is described as follows: self-aminoacylation, catalytic enhancement (BWO) (fold over background); higher = more active; k-Seq, kA / k0A0; sequences stand for … in GGGAAUGGAUCCACAUCUACGAAUUC…UUCACUGCAGACUUGACGAAGCUG
A digest of the protocol: (§1)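 Mutagenized RNA pools with a 21-nt variable region (0.43 μM) were reacted with each biotinyl-aminoacyl-oxazolone at 2–1250 μM for 90 minutes at room temperature, in 50 μL HEPES/NaCl/KCl/MgCl2/CaCl2 buffer containing 5% acetonitrile at pH 6.9–7.0. RNA captured on streptavidin was quantified by triplicate qPCR and by Illumina sequencing. The fraction reacted for each sequence was fit to a pseudo-first-order model with bootstrapping, and catalytic enhancement is the median kA divided by the uncatalyzed rate, taken as the low-activity peak of a bimodal Gaussian fit.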

A further data set has as its system biotinyl-Val-oxazolone. As to the kind of experiment: self-aminoacylation, catalytic enhancement (BVO) (fold over background); higher = more active; k-Seq, kA / k0A0; sequences stand for … in GGGAAUGGAUCCACAUCUACGAAUUC…UUCACUGCAGACUUGACGAAGCUG
The method in brief: as §1

In a further data set the test system is biotinyl-Met-oxazolone. As to the kind of experiment: self-aminoacylation, catalytic enhancement (BMO) (fold over background); higher = more active; k-Seq, kA / k0A0; sequences stand for … in GGGAAUGGAUCCACAUCUACGAAUUC…UUCACUGCAGACUUGACGAAGCUG
A digest of the protocol: as §1

A further data set concerns biotinyl-Leu-oxazolone. The data set is described as follows: self-aminoacylation, catalytic enhancement (BLO) (fold over background); higher = more active; k-Seq, kA / k0A0; sequences stand for … in GGGAAUGGAUCCACAUCUACGAAUUC…UUCACUGCAGACUUGACGAAGCUG
A digest of the protocol:
as §1

The test system of a further data set is biotinyl-Phe-oxazolone. As to the kind of experiment: self-aminoacylation, catalytic enhancement (BFO) (fold over background); higher = more active; k-Seq, kA / k0A0; sequences stand for … in GGGAAUGGAUCCACAUCUACGAAUUC…UUCACUGCAGACUUGACGAAGCUG
A digest of the protocol: as §1

Another data set relates to biotinyl-Ile-oxazolone. The data set is described as follows: self-aminoacylation, catalytic enhancement (BIO) (fold over background); higher = more active; k-Seq, kA / k0A0; sequences stand for … in GGGAAUGGAUCCACAUCUACGAAUUC…UUCACUGCAGACUUGACGAAGCUG
The method in brief: as §1

Variants at the floor of the assay were thinned out.

Take “AAGCUUGCUAAUAGUCGCAAG [Fam3.1 aminoacylation ribozyme variant]”: the self-aminoacylation in the data set on biotinyl-Trp-oxazolone came to 2.02; in the data set on biotinyl-Val-oxazolone, 1.59; in the data set on biotinyl-Met-oxazolone it was 1.69; with biotinyl-Leu-oxazolone, 1.67; in the data set on biotinyl-Phe-oxazolone it was 3.96; with biotinyl-Ile-oxazolone, 1.85.

As for “AUUCACCUGGGCCAUCGGGUG [Fam2.2 aminoacylation ribozyme variant]”, the self-aminoacylation in the data set on biotinyl-Trp-oxazolone was 4.74; with biotinyl-Val-oxazolone, 5.03; with biotinyl-Met-oxazolone, 6.2; in the data set with biotinyl-Leu-oxazolone, 6.53; with biotinyl-Phe-oxazolone, 35.7; in the data set on biotinyl-Ile-oxazolone it was 4.03.

With “CUACUUCAAUCAAUCGGUCUU [Fam1A.1 aminoacylation ribozyme variant]”, the self-aminoacylation in the data set with biotinyl-Trp-oxazolone was 10.6; in the data set with biotinyl-Val-oxazolone, 1.11; with biotinyl-Met-oxazolone it was 1.07; with biotinyl-Leu-oxazolone, 1.35; in the data set on biotinyl-Phe-oxazolone, 19.8; in the data set on biotinyl-Ile-oxazolone, 1.23.

For “CUACUUCAAUCAAUGGGUCUG [Fam1A.1 aminoacylation ribozyme variant]”, the self-aminoacylation in the data set on biotinyl-Trp-oxazolone came to 0.627; with biotinyl-Val-oxazolone it was 0.809; in the data set with biotinyl-Met-oxazolone, 0.801; with biotinyl-Leu-oxazolone it was 0.912; with biotinyl-Phe-oxazolone, 0.579; with biotinyl-Ile-oxazolone, 0.889.

Turning to “AUUAACCUAGGUCAUCCGGUG [Fam2.2 aminoacylation ribozyme variant]”, the self-aminoacylation with biotinyl-Trp-oxazolone amounted to 5.68; with biotinyl-Val-oxazolone it was 3.29; with biotinyl-Met-oxazolone, 5.02; in the data set on biotinyl-Leu-oxazolone it was 4.91; in the data set with biotinyl-Phe-oxazolone, 29.5; in the data set with biotinyl-Ile-oxazolone, 3.59.

As to “CUAAUUGAAACAAUCGGUCUG [Fam1A.1 aminoacylation ribozyme variant]”, the self-aminoacylation in the data set with biotinyl-Trp-oxazolone is 0.64; in the data set on biotinyl-Val-oxazolone, 0.775; in the data set on biotinyl-Met-oxazolone it was 0.944; in the data set with biotinyl-Leu-oxazolone, 0.752; with biotinyl-Phe-oxazolone, 0.706; in the data set on biotinyl-Ile-oxazolone it was 0.78.

With “AUUACCCAGGUCAUCAAGUGA [Fam2.1 aminoacylation ribozyme variant]”, the self-aminoacylation worked out at 2.63 in the data set on biotinyl-Trp-oxazolone; 1.59 with biotinyl-Val-oxazolone; 1.97 in the data set on biotinyl-Met-oxazolone; 1.97 in the data set on biotinyl-Leu-oxazolone; 3.35 with biotinyl-Phe-oxazolone; 1.47 in the data set on biotinyl-Ile-oxazolone.

Consider “AUUCACCUAGGUCAUCGGGGC [Fam2.2 aminoacylation ribozyme variant]”, for which the self-aminoacylation in the data set on biotinyl-Trp-oxazolone is 5.91; in the data set with biotinyl-Val-oxazolone, 4.81; in the data set with biotinyl-Met-oxazolone, 7.18; in the data set with biotinyl-Leu-oxazolone, 11.5; with biotinyl-Phe-oxazolone, 20.7; in the data set on biotinyl-Ile-oxazolone, 4.85.

For the sequence “AAGUUUACUAAUAUUCGCAAG [Fam3.1 aminoacylation ribozyme variant]”, the self-aminoacylation in the data set on biotinyl-Trp-oxazolone was 2.23; in the data set on biotinyl-Val-oxazolone, 1.66; in the data set on biotinyl-Met-oxazolone, 1.31; with biotinyl-Leu-oxazolone it was 1.44; with biotinyl-Phe-oxazolone, 2.42; in the data set with biotinyl-Ile-oxazolone, 1.67.

“AUUACCCUGGGUAUCGAGUGA [Fam2.1 aminoacylation ribozyme variant]”: the self-aminoacylation was determined as 11.2 in the data set on biotinyl-Trp-oxazolone; 4.62 in the data set on biotinyl-Val-oxazolone; 9.85 in the data set with biotinyl-Met-oxazolone; 10.9 in the data set with biotinyl-Leu-oxazolone; 57.8 in the data set on biotinyl-Phe-oxazolone; 4.51 in the data set with biotinyl-Ile-oxazolone.

For the sequence “AUUCACCUAGCACAUCGGGUG [Fam2.2 aminoacylation ribozyme variant]”, the self-aminoacylation turned out to be 2.03 with biotinyl-Trp-oxazolone; 2.12 with biotinyl-Val-oxazolone; 2.38 in the data set with biotinyl-Met-oxazolone; 3.31 with biotinyl-Leu-oxazolone; 11.3 in the data set on biotinyl-Phe-oxazolone; 2.09 with biotinyl-Ile-oxazolone.

Take “AUUGCACUGGUCAUCGAGUGA [Fam2.1 aminoacylation ribozyme variant]”: the self-aminoacylation in the data set with biotinyl-Trp-oxazolone is 6.67; in the data set on biotinyl-Val-oxazolone, 3.93; in the data set with biotinyl-Met-oxazolone, 6.01; in the data set with biotinyl-Leu-oxazolone, 6.88; in the data set with biotinyl-Phe-oxazolone, 32.7; with biotinyl-Ile-oxazolone, 3.68.

“AAGUUUGCUAAUAGUCGUAAG [Fam3.1 aminoacylation ribozyme variant]”: the self-aminoacylation in the data set with biotinyl-Trp-oxazolone worked out at 8.22; in the data set on biotinyl-Val-oxazolone, 1.05; with biotinyl-Met-oxazolone, 1.34; with biotinyl-Leu-oxazolone, 0.914; in the data set with biotinyl-Phe-oxazolone, 33; with biotinyl-Ile-oxazolone, 1.19.

For the sequence “AUUCACUUAGGUGAUCGGGUG [Fam2.2 aminoacylation ribozyme variant]”, the self-aminoacylation in the data set with biotinyl-Trp-oxazolone was 3.03; in the data set with biotinyl-Val-oxazolone, 2.5; with biotinyl-Met-oxazolone, 2.59; with biotinyl-Leu-oxazolone, 3.43; with biotinyl-Phe-oxazolone, 13.3; in the data set on biotinyl-Ile-oxazolone, 2.46.

In the case of “AUUCACCUCGUUCAUCGGGUG [Fam2.2 aminoacylation ribozyme variant]”, the self-aminoacylation stood at 5 in the data set on biotinyl-Trp-oxazolone; 3.3 with biotinyl-Val-oxazolone; 4.1 in the data set with biotinyl-Met-oxazolone; 5.48 in the data set on biotinyl-Leu-oxazolone; 26.3 with biotinyl-Phe-oxazolone; 2.93 in the data set with biotinyl-Ile-oxazolone.

“GCACACUGCAAGCAAUCGGUC [Fam1B.1 aminoacylation ribozyme variant]”: the self-aminoacylation in the data set on biotinyl-Trp-oxazolone was 2.4; in the data set with biotinyl-Val-oxazolone, 2.12; in the data set on biotinyl-Met-oxazolone, 1.87; in the data set on biotinyl-Leu-oxazolone, 1.87; in the data set with biotinyl-Phe-oxazolone, 1.77; in the data set with biotinyl-Ile-oxazolone, 2.14.

With “AGUCACCUGGGUCAUCGGGUG [Fam2.2 aminoacylation ribozyme variant]”, the self-aminoacylation in the data set on biotinyl-Trp-oxazolone turned out to be 5.64; in the data set with biotinyl-Val-oxazolone it was 4.96; with biotinyl-Met-oxazolone, 3.98; with biotinyl-Leu-oxazolone, 4.04; in the data set with biotinyl-Phe-oxazolone it was 35.4; in the data set with biotinyl-Ile-oxazolone, 4.56.

In the case of “AAGUUUGCUAAUAGCCGCCAG [Fam3.1 aminoacylation ribozyme variant]”, the self-aminoacylation in the data set on biotinyl-Trp-oxazolone is 1.21; in the data set on biotinyl-Val-oxazolone, 1.45; in the data set with biotinyl-Met-oxazolone, 1.1; in the data set with biotinyl-Leu-oxazolone, 1.03; in the data set on biotinyl-Phe-oxazolone, 0.63; in the data set with biotinyl-Ile-oxazolone, 1.52.

On to “GUUCACCUAGGUCAUCGGGCG [Fam2.2 aminoacylation ribozyme variant]”, for which the self-aminoacylation was determined as 4.17 with biotinyl-Trp-oxazolone; 3.11 in the data set with biotinyl-Val-oxazolone; 4.01 with biotinyl-Met-oxazolone; 5.06 in the data set with biotinyl-Leu-oxazolone; 4.6 in the data set with biotinyl-Phe-oxazolone; 2.98 with biotinyl-Ile-oxazolone.

Turning to “AUCCACCUAUGUCAUCGGGUG [Fam2.2 aminoacylation ribozyme variant]”, the self-aminoacylation in the data set on biotinyl-Trp-oxazolone stood at 5.8; in the data set with biotinyl-Val-oxazolone, 4.12; in the data set with biotinyl-Met-oxazolone, 6.38; in the data set with biotinyl-Leu-oxazolone, 7.91; in the data set on biotinyl-Phe-oxazolone it was 49.9; in the data set on biotinyl-Ile-oxazolone it was 4.42.

Turning to “AUUGAUCUAGGUCAUCGGGUG [Fam2.2 aminoacylation ribozyme variant]”, the self-aminoacylation was found to be 7.06 in the data set on biotinyl-Trp-oxazolone; 3.8 in the data set on biotinyl-Val-oxazolone; 6.53 in the data set with biotinyl-Met-oxazolone; 7.89 in the data set on biotinyl-Leu-oxazolone; 35.2 in the data set with biotinyl-Phe-oxazolone; 4.45 in the data set with biotinyl-Ile-oxazolone.

Regarding “AUUACCCUGGUUAUUGAGUGA [Fam2.1 aminoacylation ribozyme variant]”, the self-aminoacylation is 17.8 in the data set with biotinyl-Trp-oxazolone; 6.4 in the data set on biotinyl-Val-oxazolone; 14.4 in the data set on biotinyl-Met-oxazolone; 15.1 in the data set with biotinyl-Leu-oxazolone; 102 in the data set with biotinyl-Phe-oxazolone; 6.24 in the data set on biotinyl-Ile-oxazolone.

For the sequence “AUUAUCCUGGUCAUCUAGUGA [Fam2.1 aminoacylation ribozyme variant]”, the self-aminoacylation in the data set with biotinyl-Trp-oxazolone was 13.2; in the data set on biotinyl-Val-oxazolone, 4.98; in the data set with biotinyl-Met-oxazolone, 10.6; in the data set on biotinyl-Leu-oxazolone it was 10.8; in the data set on biotinyl-Phe-oxazolone it was 77.8; in the data set with biotinyl-Ile-oxazolone, 4.87.

The record behind these values is the supplement of paper PMC9233669.
